{"source": "paper PMC7530888", "about": "(Nucleic Acids Research, 2020)", "assay": "Small angle X-ray scattering", "assay_type": "physicochemical, M. tuberculosis", "settings": "for Rg [from Guinier] / Rg [from P(r)]: BM29 ESRF, 10°C; for Rg [from Guinier]: 50 mM Tris pH 8.0, 200 mM NaCl, 2 mM βME; for Rg [from P(r)]: pH 8.0", "note": "“And” between values parts separate entries of the source, which are not always exact repeats. Equal values may be shown once.", "data": [{"substance": "MtbLigA: M. tuberculosis NAD^+-dependent DNA ligase A, full-length", "values": [{"measurement": "Rg [from Guinier]", "value": "5.22±0.08", "unit": "nm"}, {"measurement": "Rg [from P(r)]", "value": "5.20 nm and 5.20±0.06 nm"}, {"measurement": "Rg in presence of nicked DNA", "setting": "presence of nicked DNA substrate (S1), from P(r)", "value": 4.49, "unit": "nm"}]}, {"substance": "MtbLigA+Nicked DNA: MtbLigA in complex with 27-mer nicked DNA (S1)", "values": [{"measurement": "Rg [from Guinier]", "value": "4.49±0.07", "unit": "nm"}, {"measurement": "Rg [from P(r)]", "value": "4.49±0.06", "unit": "nm"}]}]}
